Test results: patent US20250051449A1 (SURFACE ONCOLOGY, published 2025)

T1: human CD112R expressed on Jurkat cells (human, UniProt Q6DKI7 1-326)
T1 construct: whole, on cells; Used for both Jurkat-CD112R OE cells and wild type Jurkat cells; which cells is said under assay; also called PVRIG; Jurkat-CD112R OE
T1 sequence (looked up): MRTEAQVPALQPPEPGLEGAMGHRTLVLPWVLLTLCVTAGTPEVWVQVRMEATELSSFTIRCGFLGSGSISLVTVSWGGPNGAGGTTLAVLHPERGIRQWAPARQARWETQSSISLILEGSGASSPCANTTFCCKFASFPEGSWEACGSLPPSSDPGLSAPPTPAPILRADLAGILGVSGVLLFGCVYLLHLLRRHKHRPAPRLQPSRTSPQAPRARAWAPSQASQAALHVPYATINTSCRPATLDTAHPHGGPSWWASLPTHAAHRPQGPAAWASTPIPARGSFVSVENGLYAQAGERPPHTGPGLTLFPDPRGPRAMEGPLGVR

T2: CD112R-hIgG4 fusion protein (human, UniProt Q6DKI7 41-171, limits assumed)
T2 construct: also called human CD112R-hIgG4; not shown: human IgG4 portion (hIgG4)
T2 sequence (looked up): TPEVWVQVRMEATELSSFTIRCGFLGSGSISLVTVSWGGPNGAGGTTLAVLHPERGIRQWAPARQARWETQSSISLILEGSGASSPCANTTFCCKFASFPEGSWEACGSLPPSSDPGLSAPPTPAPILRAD

B1: Antibody 46 (antibody, V domains shown)
VH: EVQLVESGGGLVQPGRSLRLSCTASGFTFGDYAMSWFRQAPGKGLEWVGFIGSKAYGGTTEYTASVKGRFTISRDGSKSIAYLQMNSLKTEDTAVYYCARGPRRYTYGMDVWGQGTTVTVSS
VL: DIQMTQSPSSLSASVGDRVTITCRASQSISSYLNWYQQKPGKAPKLLIYAASSLQSGVPSRFSGSGSGTDFTLTISSLQPEDFATYYCQQSSTPLTFGGGTKVEIK
notes: in the mouse tumor studies it was used as mouse IgG2a; also called antibody clone number 46; clone 46
B2: Antibody 32 (antibody, V domains shown)
VH: QVQLVQSGAEVKKPGSSVKVSCKASGGTFSSYAISWVRQAPGQGLEWMGGIIPISGTANYAQKFQGRVTITADESTSTAYMELSSLRSEDTAVYYCARDTGRGYTRHFWFDPWGQGTLVTVSS
VL: DIQMTQSPSSLSASVGDRVTITCRASQSISSYLNWYQQKPGKAPKLLIYAASSLQSGVPSRFSGSGSGTDFTLTISSLQPEDFATYYCQQSDILYTFGGGTKVEIK
notes: Purified as IgG; compared with an IgG1 isotype control and detected with anti-human IgG Fc; also called antibody clone number 32; parent clone 32
B3: Antibody 33 (antibody, V domains shown)
VH: QVQLVQSGAEVKKPGSSVKVSCKASGGTFGNYAISWVRQAPGQGLEWMGGIIPIPGIANYAQKFQGRVTITADESTSTAYMELSSLRSEDTAVYYCARDTGRGYTRHFWFDPWGQGTLVTVSS
VL: DIQMTQSPSSLSASVGDRVTITCRASQSISSYLNWYQQKPGKAPKLLIYAASSLQSGVPSRFSGSGSGTDFTLTISSLQPEDFATYYCQQSDILYTFGGGTKVEIK
notes: Purified as IgG; compared with an IgG1 isotype control and detected with anti-human IgG Fc; also called antibody clone number 33; clone 33
B4: Antibody 35 (antibody, V domains shown)
VH: QVQLVQSGAEVKKPGSSVKVSCKASGGTFSSAAISWVRQAPGQGLEWMGNIIPIVGIANYAQKFQGRVTITADESTSTAYMELSSLRSEDTAVYYCARDTGRGYTRHFWFDPWGQGTLVTVSS
VL: DIQMTQSPSSLSASVGDRVTITCRASQSISSYLNWYQQKPGKAPKLLIYAASSLQSGVPSRFSGSGSGTDFTLTISSLQPEDFATYYCQQSDILYTFGGGTKVEIK
notes: Purified as IgG; compared with an IgG1 isotype control and detected with anti-human IgG Fc; also called antibody clone number 35; clone 35
B5: Antibody 58 (antibody, V domains shown)
VH: EVQLVESGGGLVQPGRSLRLSCTASGFTFGDYAMSWFRQAPGKGLEWVGFIGSKFYGGETEYTASVKGRFTISRDGSKSIAYLQMNSLKTEDTAVYYCARGPRRYTYGMDVWGQGTTVTVSS
VL: DIQMTQSPSSLSASVGDRVTITCRASQSISSYLNWYQQKPGKAPKLLIYAASSLQSGVPSRFSGSGSGTDFTLTISSLQPEDFATYYCQQSSTPLTFGGGTKVEIK
notes: Purified as IgG; compared with an IgG1 isotype control and detected with anti-human IgG Fc; also called antibody clone number 58; clone 58
B6: Antibody 34 (antibody, V domains shown)
VH: QVQLVQSGAEVKKPGSSVKVSCKASGGTFSSAAISWVRQAPGQGLEWMGGIFPISGHANYAQKFQGRVTITADESTSTAYMELSSLRSEDTAVYYCARDTGRGYTRHFWFDPWGQGTLVTVSS
VL: DIQMTQSPSSLSASVGDRVTITCRASQSISSYLNWYQQKPGKAPKLLIYAASSLQSGVPSRFSGSGSGTDFTLTISSLQPEDFATYYCQQSDILYTFGGGTKVEIK
notes: Purified as IgG; compared with an IgG1 isotype control and detected with anti-human IgG Fc; also called antibody clone number 34; clone 34
B7: Antibody 36 (antibody, V domains shown)
VH: QVQLVQSGAEVKKPGSSVKVSCKASGGTFATYAISWVRQAPGQGLEWMGGIFPLSGTANYAQKFQGRVTITADESTSTAYMELSSLRSEDTAVYYCARDTGRGYTRHFWFDPWGQGTLVTVSS
VL: DIQMTQSPSSLSASVGDRVTITCRASQSISSYLNWYQQKPGKAPKLLIYAASSLQSGVPSRFSGSGSGTDFTLTISSLQPEDFATYYCQQSDILYTFGGGTKVEIK
notes: Purified as IgG; compared with an IgG1 isotype control and detected with anti-human IgG Fc; also called antibody clone number 36; clone 36

Assays:
[1] = target: T1, human CD112R expressed on Jurkat cells; assay: flow cytometry, wild type Jurkat cells, 0.63 ug/mL antibody
Experimental: The ability of anti-CD112R antibodies to bind to CD112R expressed on cells was evaluated. 1×10⁵ Jurkat cells (acute T cell leukemia cell line, ATCC #TIB-152) that were either wild type or engineered to over-express human CD112R (Jurkat-CD112R OE) were added to each well of a 96-well V bottom plate and stained with either anti-CD112R antibodies or an IgG1 isotype control (0.63 μg/mL) for 1 hour at 4° C. Cells were washed twice with PBS+2% FCS and resuspended with Alexa Fluor® 647 anti-human IgG Fc antibody (Biolegend, Cat #409320) diluted 1:100 in PBS+2% FCS and incubated at 4° C. for 30 minutes. Cells were subsequently washed twice and resuspended in PBS+2% FCS. Cellular data was acquired using a LSRFortessa X-20 (BD Biosciences) and analyzed with FlowJo software (Tree Star).

[2] = target: T2, CD112R-hIgG4 fusion protein; assay: blocking ELISA: coated CD112R-hIgG4, antibody, then biotinylated CD112 Fc
Experimental: The ability of anti-CD112R antibodies to block human CD112R was also evaluated by ELISA. Briefly, 96 well Nunc Maxisorp plates were coated with 1 μg/mL of a CD112R-hIgG4 fusion protein in PBS overnight at 4° C. […] After blocking, plates were washed 6× with PBST. Next, 100 μl of anti-CD112R antibodies in PBS+1% BSA was added at a final starting concentration of 10 μg/mL, with 4-fold serial dilutions. Plates were incubated at room temperature for 1.5 hours. Next plates were washed 6× with PBST and then incubated with 1 μg/ml CD112 Fc protein (R&D Systems, Cat #9317-N2-050) that was biotinylated with a sulfo-NHS biotinylation kit (Thermo Fisher, Cat #21925) in 100 μl of PBS+1% BSA for 1 hour at room temperature. Plates were then washed 6× with PBST and subsequently incubated with streptavidin-HRP (Biolegend, Cat #405210) diluted in PBS+1% BSA according to the manufacturer recommendation for 1 hour at room temperature. Following this incubation, plates were then washed 6× with PBST and developed with TMB substrate (Life Technologies, Cat #002023). The reaction was stopped with an equal volume of stop solution (Life Technologies, Cat #SS04). Absorbance at 450 nm (O.D. 450) was measured on a SpectraMax plate reader.
Results are depicted in FIG. 2B and Table 2. […] Percent inhibition was calculated as [100−((test sample O.D. 450/Max 0.D. 450)*100%)] Max O.D. 450 was defined as absorbance at 450 nm in the absence of antibody.

[3] = target: T3, mouse CD112R-hIgG4 fusion protein (mouse; human); assay: blocking ELISA: coated mouse CD112, antibody plus mouse CD112R-hIgG4 (2 ug/mL)
T3 construct: also called soluble mouse CD112R; soluble murine CD112R
Experimental: The ability of species cross reactive anti-CD112R antibodies to block mouse CD112R binding to mouse CD112 was evaluated by ELISA. Briefly. 96 well Nunc Maxisorp plates were coated with 1 μg/mL of mouse CD112 (Sino Biological. Cat #50318-M08H) in PBS overnight at 4° C. […] After blocking, plates were washed 6× with PBST. Next. 50 μL of anti-CD112R antibodies or isotype control (Biolegend. Cat #403502) in PBS+1% BSA were added at a final starting concentration of 40 μg/mL, with 2-fold serial dilutions. 50 μL of a mouse CD112R-hIgG4 fusion protein was also added to each well at a final concentration of 2 μg/mL. Plates were incubated at room temperature for 1.5 hours. Next plates were washed 6× with PBST and then incubated with anti-IgG4 HRP (Thermo Fisher, Cat #MA1-33437) in 100 μL for 1 hour at room temperature. Plates were then washed 6× with PBST and developed with TMB substrate (Life Technologies. Cat #002023). The reaction was stopped with an equal volume of stop solution (Life Technologies. Cat #SS04). Absorbance at 450 nm (O.D. 450) was measured on a SpectraMax plate reader.
Results are depicted in FIG. 19 and Table 11. […] Percent inhibition was calculated as [100−((test sample O.D. 450/Max O.D. 450)*100%)] Max O.D. 450 was defined as absorbance at 450 nm in the absence of antibody.

[4] = target: T1, human CD112R expressed on Jurkat cells; assay: flow cytometry competition on Jurkat-CD112R OE cells; competitor biotinylated his-tagged human CD112
Experimental: The ability of anti-CD112R antibodies to block CD112 binding to CD112R expressing cells was evaluated. 1×10⁵ Jurkat cells (acute T cell leukemia cell line, ATCC #TIB-152) that were engineered to over-express human CD112R (Jurkat-CD112R OE) were added to each well of a 96-well V bottom plate and stained with serial dilutions of either anti-CD112R antibodies or an IgG1 isotype control (highest concentration, 10 μg/mL) for 1 hour at 4° C. Cells were washed twice with PBS+2% FCS and resuspended with biotinylated his-tagged human CD112 (3 μg/mL) (BPS Bioscience, #71234) and PE Streptavidin (5 μg/mL) (Biolegend, #405204) in PBS+2% FCS and incubated at 2 hours at 4° C. Cells were subsequently washed twice and resuspended in PBS+2% FCS. Cellular data was acquired using a LSRFortessa X-20 (BD Biosciences) and analyzed with FlowJo software (Tree Star).
Results are depicted in FIG. 2A and Table 2. […] Percent inhibition was calculated as [100−((test sample MFI/Max MFI)*100%)]

Binder | gMFI (fold increase over isotype) [1] | CD112 blocking max inhibition ELISA (%) [2] | mouse CD112/CD112R blocking ELISA max inhibition (%) [3] | CD112 blocking max inhibition (%) [4] | IC50 [4]
B1 | 4.2 fold increase over isotype | 97.6% | 88% | 95.5% | 0.0162 µg/mL
B2 | 2.5 fold increase over isotype | 75.1% | 0% | 96% | 0.0236 µg/mL
B3 | 3.4 fold increase over isotype | 78.8% | 28.3% | 97.4% | 0.0219 µg/mL
B4 | 3.3 fold increase over isotype | 81.7% | 24.2% | 97.4% | 0.0162 µg/mL
B5 | 4.5 fold increase over isotype | 97.3% | 85.7% | 96.3% | 0.0028 µg/mL
B6 | 3.8 fold increase over isotype | 80% | 20.3% | 96.9% | 0.0132 µg/mL
B7 | 3.5 fold increase over isotype | 86.2% | 41.6% | 97.5% | 0.0244 µg/mL
